10 molecules from PMC9340783, “Development of a fully human anti‐GITR antibody with potent antitumor activity using H2L2 mice” (FEBS Open Bio, 2022) can be followed below.

First the molecules themselves.
T1: cynoGITR on 293F‐cynoGITR cells (Macaca fascicularis)
T1 construct: also called 293F‐cGITR
T1 chain: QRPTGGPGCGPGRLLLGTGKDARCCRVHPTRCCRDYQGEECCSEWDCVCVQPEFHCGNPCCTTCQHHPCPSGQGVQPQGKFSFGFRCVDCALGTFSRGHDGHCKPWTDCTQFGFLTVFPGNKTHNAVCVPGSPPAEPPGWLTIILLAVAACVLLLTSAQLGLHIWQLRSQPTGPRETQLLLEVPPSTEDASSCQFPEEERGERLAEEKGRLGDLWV

T2: cynoGITR ECD hFc (Macaca fascicularis)
T2 construct: cynomolgus GITR, extracellular domain, Gln20-Glu155, NCBI XP_005545180.1; also called cynoGITR protein; cGITR; source: FreeStyle 293F, transiently transfected, purified by protein A
T2 chain: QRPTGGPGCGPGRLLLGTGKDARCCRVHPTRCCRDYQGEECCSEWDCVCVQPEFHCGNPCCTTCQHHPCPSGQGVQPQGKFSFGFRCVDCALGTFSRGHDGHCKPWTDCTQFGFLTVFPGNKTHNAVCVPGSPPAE

B1: mAb019 (antibody, V domains shown)
VH: QVQLVESGGGVVQPGRSLRLSCAASGFTFSSYGMHWVRQAPGKGLEWVAVIWYAGSRKFYADSVEGRFTISRDNSKNTLYLQMSSVRPEDTAVYYCARGGSLDGGFFYYGMDVWGQGTTVTVSS
VL: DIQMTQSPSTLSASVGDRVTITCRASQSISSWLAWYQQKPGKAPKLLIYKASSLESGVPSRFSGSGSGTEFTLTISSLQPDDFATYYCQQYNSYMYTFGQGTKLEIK
notes: as the VH of m12 (hab019 was made from the variable regions of mAb019); as the VL of m12; Human-murine chimeric antibody from H2L2 mice: human variable regions, rat constant regions; source: hybridoma cell culture supernatant, purified (Protein A)
B2: hab019e1 (antibody, V domains shown)
VH: B1 VH with S84N, V86L, P88A
VL: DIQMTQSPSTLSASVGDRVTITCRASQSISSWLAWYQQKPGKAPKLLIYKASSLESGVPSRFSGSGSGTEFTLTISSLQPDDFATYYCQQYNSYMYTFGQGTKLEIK
notes: 3503‐hab019‐VH(DG + NLA); positions not given; as the VL of m12 (3503‐hab019‐Vk); Whole antibody, human IgG1 heavy chain constant region, human kappa light chain constant region; source: FreeStyle 293F, transiently co-transfected, purified from culture supernatant
B3: hab019e3 (antibody, V domains shown)
VH: B1 VH with S84N, V86L, P88A, G104A
VL: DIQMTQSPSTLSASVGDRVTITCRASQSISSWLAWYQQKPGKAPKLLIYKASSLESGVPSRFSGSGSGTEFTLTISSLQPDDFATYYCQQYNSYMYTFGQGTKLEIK
notes: 3503‐hab019‐VH(DA + NLA); positions not given; as the VL of m12 (3503‐hab019‐Vk); Whole antibody, human IgG1 heavy chain constant region, human kappa light chain constant region; source: FreeStyle 293F, transiently co-transfected, purified from culture supernatant
B4: hab019 (antibody, V domains shown)
VH: B1 VH
VL: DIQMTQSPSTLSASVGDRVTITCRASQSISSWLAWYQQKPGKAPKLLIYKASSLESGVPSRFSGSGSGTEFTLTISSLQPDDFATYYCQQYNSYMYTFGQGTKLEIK
notes: 3503‐hab019‐VH; 3503‐hab019‐Vk; Whole antibody, human IgG1 heavy chain constant region, human kappa light chain constant region; source: FreeStyle 293F, transiently co-transfected, purified from culture supernatant
B5: mAb070 (antibody, V domains shown)
VH: QVQLVESGGGVVQPGRSLRLSCAASGFTFSSYGMHWVRQAPGKGLEWVAVIWYETSNKFYVDSVKGRFTISRDNSKNTLYLQMNSLRAEDTAVYYCARYGASSGWYWYFDLWGRGTLVTVSS
VL: DIQLTQSPSFLSASVGDRVTITCRASQGISSFLAWYQQKPGKAPKLLIYAASTLQSGVPSRFSGSGSGTEFTLTISSLQPEDFATYCCQQLNSYPFTFGQGTKLEIK
notes: as the VH of m14; as the VL of m14; Human-murine chimeric antibody from H2L2 mice: human variable regions, rat constant regions; source: hybridoma cell culture supernatant, purified (Protein A)
B6: mAb064 (antibody, V domains shown)
VH: B5 VH with F59Y, V61A, S85N, A101G, S102N
VL: B5 VL with K42T
notes: as the VH of m13; as the VL of m13; Human-murine chimeric antibody from H2L2 mice: human variable regions, rat constant regions; source: hybridoma cell culture supernatant, purified (Protein A)
B7: hab076e1 (antibody, V domains shown)
VH: B5 VH with F59Y, V61A
VL: B5 VL with F32Y, C87Y
notes: as the VH of m15 (3503‐hab076‐VH); 3503‐hab076‐Vk(C2Y); the substitution is against the VL of m15 (Cys in FR3 of VL); position not given; Whole antibody, human IgG1 heavy chain constant region, human kappa light chain constant region; source: FreeStyle 293F, transiently co-transfected, purified from culture supernatant
B8: mAb076 (antibody, V domains shown)
VH: B5 VH with F59Y, V61A
VL: B5 VL with F32Y
notes: as the VH of m15; as the VL of m15; Human-murine chimeric antibody from H2L2 mice: human variable regions, rat constant regions; source: hybridoma cell culture supernatant, purified (Protein A)
B9: hab064e1 (antibody, V domains shown)
VH: B5 VH with F59Y, V61A, A101G, S102N
VL: B5 VL with C87Y
notes: 3503‐hab064‐VH(N2S); the substitution is against the VH of m13; position not given; 3503‐hab064‐Vk(T2K/C2Y); the substitutions are against the VL of m13; positions not given; Whole antibody, human IgG1 heavy chain constant region, human kappa light chain constant region; source: FreeStyle 293F, transiently co-transfected, purified from culture supernatant
B10: hab064 (antibody, V domains shown)
VH: B5 VH with F59Y, V61A, S85N, A101G, S102N
VL: B5 VL with K42T
notes: 3503‐hab064‐VH; 3503‐hab064‐Vk; Whole antibody, human IgG1 heavy chain constant region, human kappa light chain constant region; source: FreeStyle 293F, transiently co-transfected, purified from culture supernatant

Where a chain is given by its changes, count along the chain named. Names may count otherwise.

T3 sequence (Q9Y5U5 26-241): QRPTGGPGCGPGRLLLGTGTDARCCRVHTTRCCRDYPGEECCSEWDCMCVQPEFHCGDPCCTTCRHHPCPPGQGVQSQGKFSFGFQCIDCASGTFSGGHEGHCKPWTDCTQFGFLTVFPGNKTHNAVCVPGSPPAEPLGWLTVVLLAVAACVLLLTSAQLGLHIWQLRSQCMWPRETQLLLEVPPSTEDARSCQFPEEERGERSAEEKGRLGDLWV

One assay has as its target T3, human GITR on 293F‐hGITR cells (Homo sapiens (Human)., UniProt Q9Y5U5-1). The experiment in a line: cell-based or functional assay.
Settings: not given
On to B1, for which the “NF‐ĸB luciferase reporter assay, Crosslinking, EC50” value was determined as 12.5 nM; the “NF‐ĸB luciferase reporter assay, Crosslinking, Top ratio” value worked out at 11 fold; the “NF‐ĸB luciferase reporter assay, No crosslinking, Top ratio” value was found to be 20 fold.
As to B2, the “NF‐ĸB luciferase reporter assay, Crosslinking, EC50” value was determined as 9.46 nM; the “NF‐ĸB luciferase reporter assay, Crosslinking, Top ratio” value turned out to be 12 fold; the “NF‐ĸB luciferase reporter assay, No crosslinking, EC50” value is 0.26 nM; the “NF‐ĸB luciferase reporter assay, No crosslinking, Top ratio” value stood at 8 fold.
On to B3, for which the “NF‐ĸB luciferase reporter assay, Crosslinking, EC50” value amounted to 8.75 nM; the “NF‐ĸB luciferase reporter assay, Crosslinking, Top ratio” value worked out at 14 fold; the “NF‐ĸB luciferase reporter assay, No crosslinking, EC50” value is 0.269 nM; the “NF‐ĸB luciferase reporter assay, No crosslinking, Top ratio” value came out at 9 fold.
As to B4, the “NF‐ĸB luciferase reporter assay, Crosslinking, EC50” value amounted to 8.66 nM; the “NF‐ĸB luciferase reporter assay, Crosslinking, Top ratio” value worked out at 13 fold; the “NF‐ĸB luciferase reporter assay, No crosslinking, EC50” value stood at 0.265 nM; the “NF‐ĸB luciferase reporter assay, No crosslinking, Top ratio” value came out at 10 fold.
On to B5, for which the “NF‐ĸB luciferase reporter assay, Crosslinking, EC50” value was over 0.09 nM; the “NF‐ĸB luciferase reporter assay, Crosslinking, Top ratio” value amounted to 7 fold; the “NF‐ĸB luciferase reporter assay, No crosslinking, EC50” value came to 0.062 nM; the “NF‐ĸB luciferase reporter assay, No crosslinking, Top ratio” value worked out at 10 fold.
For B6, the “NF‐ĸB luciferase reporter assay, Crosslinking, EC50” value is 0.101 nM; the “NF‐ĸB luciferase reporter assay, Crosslinking, Top ratio” value was 7 fold; the “NF‐ĸB luciferase reporter assay, No crosslinking, EC50” value is over 0.2 nM; the “NF‐ĸB luciferase reporter assay, No crosslinking, Top ratio” value was 10 fold.
Turning to B7, the “NF‐ĸB luciferase reporter assay, Crosslinking, EC50” value came to 5.16 nM; the “NF‐ĸB luciferase reporter assay, Crosslinking, Top ratio” value is 13 fold; the “NF‐ĸB luciferase reporter assay, No crosslinking, EC50” value came to 0.264 nM; the “NF‐ĸB luciferase reporter assay, No crosslinking, Top ratio” value worked out at 8 fold.
For the molecule B8, the “NF‐ĸB luciferase reporter assay, Crosslinking, EC50” value was over 0.27 nM; the “NF‐ĸB luciferase reporter assay, Crosslinking, Top ratio” value amounted to 8 fold; the “NF‐ĸB luciferase reporter assay, No crosslinking, EC50” value is over 0.09 nM; the “NF‐ĸB luciferase reporter assay, No crosslinking, Top ratio” value turned out to be 14 fold.
As for B9, the “NF‐ĸB luciferase reporter assay, Crosslinking, EC50” value stood at 9.26 nM; the “NF‐ĸB luciferase reporter assay, Crosslinking, Top ratio” value stood at 12 fold; the “NF‐ĸB luciferase reporter assay, No crosslinking, EC50” value amounted to 0.264 nM; the “NF‐ĸB luciferase reporter assay, No crosslinking, Top ratio” value is 11 fold.
As to B10, the “NF‐ĸB luciferase reporter assay, Crosslinking, EC50” value was 7.13 nM; the “NF‐ĸB luciferase reporter assay, Crosslinking, Top ratio” value came to 12 fold; the “NF‐ĸB luciferase reporter assay, No crosslinking, EC50” value was 0.177 nM; the “NF‐ĸB luciferase reporter assay, No crosslinking, Top ratio” value was 10 fold.

Another assay deals with T4, hGITR ECD hFc (Homo sapiens (Human)., UniProt Q9Y5U5, Thr45Ala).
T4 construct: human GITR (glucocorticoid-induced TNF receptor-related), extracellular domain, Gln26-Glu161 with Thr45Ala, UniProt Q9Y5U5.1; also called human GITR protein; source: FreeStyle 293F, transiently transfected, purified by protein A
The experiment in a line: SPR; Biacore T200; hGITR ECD hFc immobilised on a Series S CM5 chip; antibody 0, 3.125, 6.25, 12.5, 25 and 50 nM; association 180 s, dissociation 600 s. The conditions noted are these: both partners purified. On the technique in general: SPR reads the build-up and loss of mass on a sensor chip optically.
As a reminder, the Kd is a measure of binding affinity in units of concentration. Read a high Kd as lower affinity. In the case of B4, binding was characterised by a dissociation constant (Kd) of 0.401 nM.
Turning to B10, the Kd worked out at 0.592 nM.

The target of a further assay is T3, human GITR on 293F‐hGITR cells. The experiment in a line: flow cytometry on cells; 293F‐hGITR or 293F‐cynoGITR cells incubated with antibodies at 4 °C for 1 h, fluorescent anti-rat/human secondary antibody; EC50 of MFI curve. The note with it: one partner purified. (A flow cytometer gives signals particle by particle.)
As a reminder, the EC50 is the midpoint of the concentration-response curve. Lower therefore signals greater potency. Take B1: the EC50 worked out at 0.163 nM.
As to B2, the EC50 came out at 0.181 nM.
With B3, the EC50 is 0.215 nM.
Still for that read-out and setting: then B4, with 0.244 nM.
In the case of B5, the response was half-maximal at 0.358 nM (EC50).
As for B6, the EC50 was 0.385 nM.
The molecule B7 returned an EC50 of 0.195 nM.
As for B8, it took 0.152 nM to reach a half-maximal effect (EC50).
Same read-out and setting: then B9, with 0.235 nM; and B10, with 0.165 nM.

The next assay deals with T1, cynoGITR on 293F‐cynoGITR cells. The description is as above. The conditions noted are these: one partner purified.
In turn, B1 yielded an EC50 of 0.011 nM.
The molecule B2 came in with an EC50 of 0.287 nM.
On to B3, for which it took 0.277 nM to reach a half-maximal effect (EC50).
As for B4, the EC50 turned out to be 0.304 nM.
For the molecule B5, the EC50 was 0.198 nM.
Consider B6, for which a half-maximal effect (EC50) was put at 0.404 nM.
In turn, B7 had a concentration for a half-maximal effect (EC50) of 0.26 nM.
B8 returned a concentration giving a half-maximal response (EC50) of 0.226 nM.
Molecule B9 came in with a 50% effective concentration (EC50) of 0.313 nM.
Molecule B10 came in with an EC50 of 0.22 nM.

The target of the next assay is T4, hGITR ECD hFc. The experiment in a line: ELISA; indirect ELISA; antigen hFc fusion protein coated on 96-well plates (1 μg·mL^−1 overnight at 4 °C in Fig. 3B), antibody added, detected with anti-rat IgG/hIgG-peroxidase antibody. The note with it: both partners purified. (In general: In an ELISA, binding on a coated surface is turned into a signal by an enzyme label.)
B1: the 50% effective concentration (EC50) is 0.008 nM.
Molecule B2 yielded an EC50 of 0.082 nM.
For B3, the EC50 came out at 0.098 nM.
Molecule B4 had an EC50 of 0.103 nM.
With B5, the concentration for a half-maximal effect (EC50) amounted to 0.022 nM.
Same read-out and setting: the result for B6 reads 0.038 nM; that for B7, 0.087 nM.
B8 had an EC50 of 0.01 nM.
The molecule B9 gave an EC50 of 0.093 nM.
B10: a half-maximal effect (EC50) was put at 0.106 nM.

Another assay has as its target T2, cynoGITR ECD hFc. The description is as above. The conditions noted are these: both partners purified.
B1: the EC50 worked out at 0.007 nM.
The same measure, in the same setting: the result for B2 reads 0.079 nM; that for B3, 0.089 nM; that for B4, 0.092 nM.
In the case of B5, the EC50 was 0.025 nM.
Take B6: a half-maximal effect (EC50) was put at 0.035 nM.
Still for that read-out and setting: the result for B7 reads 0.094 nM; that for B8, 0.012 nM.
The molecule B9 yielded a concentration for a half-maximal effect (EC50) of 0.096 nM.
For the molecule B10, the half-maximal effective concentration (EC50) worked out at 0.108 nM.
